Results reported in article PMC8605244 (The Journal of Biological Chemistry, 2021).
Positions count from the first letter of the chain named.

B1: RASSF5 RA domain mutant D2 (RTRHWKR) (designed binder)
chain: EIKQKIDSYNSRERTRHGMKLSEDGTYTGWIKVHLKLRRPVTVPAGIRPQSIYDAIKEVNPAATTDKRTSFYLPLDAIKQLKISSTTTVSEVIQGLLKKFRVVDNPQKFALFKRIHKDGQVLFQKLSIADYPLYLRLLAGPDTDVLSFVLKENETGEV
notes: RASSF5 (NORE1A) RA domain, residues 205-362, with RTRHWKR at positions 218, 219, 220, 221, 234, 286, 305 (WT: KHCLFHM); The numbers follow PDB 3DDC; Selected by yeast surface display against Ras-GDP; source: E. coli BL21(DE3), pET28a, purified (Ni beads, Superdex75 SEC)
B2: RASSF5 RA domain mutant D3 (FRKFWHK) (designed binder)
chain: B1 chain with R14F, T15R, R16K, H17F, K82H, R101K
notes: RASSF5 (NORE1A) RA domain, residues 205-362, with FRKFWHK at positions 218, 219, 220, 221, 234, 286, 305 (WT: KHCLFHM); The numbers follow PDB 3DDC; Selected by yeast surface display against Ras-GDP; source: E. coli BL21(DE3), pET28a, purified (Ni beads, Superdex75 SEC)
B3: RASSF5 RA domain mutant T2 (YRRLYKR) (designed binder)
chain: B1 chain with R14Y, T15R, H17L, W30Y
notes: RASSF5 (NORE1A) RA domain, residues 205-362, with YRRLYKR at positions 218, 219, 220, 221, 234, 286, 305 (WT: KHCLFHM); The numbers follow PDB 3DDC; Selected by yeast surface display against Ras-GTP; source: E. coli BL21(DE3), pET28a, purified (Ni beads, Superdex75 SEC)
B4: RASSF5 RA domain mutant T3 (WSRLYKR) (designed binder)
chain: B1 chain with R14W, T15S, H17L, W30Y
notes: RASSF5 (NORE1A) RA domain, residues 205-362, with WSRLYKR at positions 218, 219, 220, 221, 234, 286, 305 (WT: KHCLFHM); The numbers follow PDB 3DDC; Selected by yeast surface display against Ras-GTP; source: E. coli BL21(DE3), pET28a, purified (Ni beads, Superdex75 SEC)

How the values were obtained:
[1] = target: T1, H-Ras, biotinylated, loaded with a nonhydrolyzable GTP analog (Ras-GTP) or with GDP (Ras-GDP) (UniProt P01112 1-189, biotin on the AVI-tag (attached in vivo by BirA)); experiment: SPR; OpenSPR, streptavidin chip; biotinylated Ras in the GDP-bound state immobilised at 50 ug/ml; RASSF5 variants injected at 1.25-20 uM; Ras buffer (Tris 20 mM, NaCl 100 mM, MgCl2 5 mM, pH 7.5) with 0.1% Tween20 and 0.5% BSA; 30 ul/min; conditions: both partners purified
T1 construct: H-Ras; One construct used in two nucleotide states; also called biotinylated-Ras; not shown: His tag, N-terminal, cleaved; AVI-tag, C-terminal, kept

[2] = target: T1, H-Ras, biotinylated, loaded with a …; experiment: SPR; OpenSPR, streptavidin chip; biotinylated Ras in the GTP-bound state (nonhydrolyzable analog) immobilised at 50 ug/ml; RASSF5 variants injected at 1.25-20 uM; Ras buffer (Tris 20 mM, NaCl 100 mM, MgCl2 5 mM, pH 7.5) with 0.1% Tween20 and 0.5% BSA; 30 ul/min; conditions: both partners purified

T1 sequence (P01112 whole entry): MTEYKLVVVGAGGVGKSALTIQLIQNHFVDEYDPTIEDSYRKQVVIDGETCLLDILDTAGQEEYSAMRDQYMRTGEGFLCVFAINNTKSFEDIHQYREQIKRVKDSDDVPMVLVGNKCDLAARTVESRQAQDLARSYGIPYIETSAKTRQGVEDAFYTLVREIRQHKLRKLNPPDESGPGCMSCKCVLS

Row | Binder | Kd [1] [nM] | Kd [2] [nM]
1 | B1 | 1600 ± 300 | 
2 | B2 | 1600 ± 200 | 
3 | B3 | 3000 ± 500 | 
4 | B4 | 1600 ± 300 | 1000 ± 150
